PMC4848625, “Structural Characterization of Humanized Nanobodies with Neutralizing Activity against the Bordetella pertussis CyaA-Hemolysin: Implications for a Potential Epitope of Toxin-Protective Antigen” (Toxins, 2016)

B1: VHH37, His-tagged, purified and refolded (VHH)
VHH: VQLVESGGGSVQAGGSLRLSCTASGFTFDDFDMGWYHQAPGNECELVSTISNAGHTYYADSVKGRFAISRDNAKNMVYLQMNNLKPEDTAMYYCAAVGALLGFPLVLARPRGGYNYWGQGTMVTVSS
notes: not shown: His6, C-terminal, kept
B2: VHH37, E-tagged (clone no. 37, from the humanized-camel VH/VHH phage-display library) (VHH)
VHH: VQLVESGGGSVQAGGSLRLSCTASGFTFDDFDMGWYHQAPGNECELVSTISNAGHTYYADSVKGRFAISRDNAKNMVYLQMNNLKPEDTAMYYCAAVGALLGFPLVLARPRGGYNYWGQGTMVTVSS
notes: source: E. coli HB2151, phagemid pCANTAB5E, IPTG-induced, in lysate; not shown: E tag, C-terminal, kept
B3: VHH2, E-tagged (clone no. 2, from the humanized-camel VH/VHH phage-display library) (VHH)
VHH: VQLVESGGGSVQAGGSLRLSCTVSGYTDNRYCMGWFRQAPGKEREGVAGINDFGGTTYYVDSVKGRFTISQNNAKNTVYLQMNSLKPEDTAIYYCAIAPRIWGSICSPGTQYNYWGQGTMVTVSS
notes: as for B2
B4: VHH2, His-tagged, purified and refolded (VHH)
VHH: VQLVESGGGSVQAGGSLRLSCTVSGYTDNRYCMGWFRQAPGKEREGVAGINDFGGTTYYVDSVKGRFTISQNNAKNTVYLQMNSLKPEDTAIYYCAIAPRIWGSICSPGTQYNYWGQGTMVTVSS
notes: as for B1

Molecular target: T1, CyaA-hemolysin (CyaA-Hly), 126-kDa truncated fragment of Bordetella pertussis adenylate cyclase-hemolysin … (Bordetella pertussis, strain not named; …, UniProt P0DKX7)
T1 construct: also called CyaA-Hly toxin; His-tagged CyaA-Hly domain
T1 sequence (P0DKX7 whole entry, looked up, the tested form may be a part): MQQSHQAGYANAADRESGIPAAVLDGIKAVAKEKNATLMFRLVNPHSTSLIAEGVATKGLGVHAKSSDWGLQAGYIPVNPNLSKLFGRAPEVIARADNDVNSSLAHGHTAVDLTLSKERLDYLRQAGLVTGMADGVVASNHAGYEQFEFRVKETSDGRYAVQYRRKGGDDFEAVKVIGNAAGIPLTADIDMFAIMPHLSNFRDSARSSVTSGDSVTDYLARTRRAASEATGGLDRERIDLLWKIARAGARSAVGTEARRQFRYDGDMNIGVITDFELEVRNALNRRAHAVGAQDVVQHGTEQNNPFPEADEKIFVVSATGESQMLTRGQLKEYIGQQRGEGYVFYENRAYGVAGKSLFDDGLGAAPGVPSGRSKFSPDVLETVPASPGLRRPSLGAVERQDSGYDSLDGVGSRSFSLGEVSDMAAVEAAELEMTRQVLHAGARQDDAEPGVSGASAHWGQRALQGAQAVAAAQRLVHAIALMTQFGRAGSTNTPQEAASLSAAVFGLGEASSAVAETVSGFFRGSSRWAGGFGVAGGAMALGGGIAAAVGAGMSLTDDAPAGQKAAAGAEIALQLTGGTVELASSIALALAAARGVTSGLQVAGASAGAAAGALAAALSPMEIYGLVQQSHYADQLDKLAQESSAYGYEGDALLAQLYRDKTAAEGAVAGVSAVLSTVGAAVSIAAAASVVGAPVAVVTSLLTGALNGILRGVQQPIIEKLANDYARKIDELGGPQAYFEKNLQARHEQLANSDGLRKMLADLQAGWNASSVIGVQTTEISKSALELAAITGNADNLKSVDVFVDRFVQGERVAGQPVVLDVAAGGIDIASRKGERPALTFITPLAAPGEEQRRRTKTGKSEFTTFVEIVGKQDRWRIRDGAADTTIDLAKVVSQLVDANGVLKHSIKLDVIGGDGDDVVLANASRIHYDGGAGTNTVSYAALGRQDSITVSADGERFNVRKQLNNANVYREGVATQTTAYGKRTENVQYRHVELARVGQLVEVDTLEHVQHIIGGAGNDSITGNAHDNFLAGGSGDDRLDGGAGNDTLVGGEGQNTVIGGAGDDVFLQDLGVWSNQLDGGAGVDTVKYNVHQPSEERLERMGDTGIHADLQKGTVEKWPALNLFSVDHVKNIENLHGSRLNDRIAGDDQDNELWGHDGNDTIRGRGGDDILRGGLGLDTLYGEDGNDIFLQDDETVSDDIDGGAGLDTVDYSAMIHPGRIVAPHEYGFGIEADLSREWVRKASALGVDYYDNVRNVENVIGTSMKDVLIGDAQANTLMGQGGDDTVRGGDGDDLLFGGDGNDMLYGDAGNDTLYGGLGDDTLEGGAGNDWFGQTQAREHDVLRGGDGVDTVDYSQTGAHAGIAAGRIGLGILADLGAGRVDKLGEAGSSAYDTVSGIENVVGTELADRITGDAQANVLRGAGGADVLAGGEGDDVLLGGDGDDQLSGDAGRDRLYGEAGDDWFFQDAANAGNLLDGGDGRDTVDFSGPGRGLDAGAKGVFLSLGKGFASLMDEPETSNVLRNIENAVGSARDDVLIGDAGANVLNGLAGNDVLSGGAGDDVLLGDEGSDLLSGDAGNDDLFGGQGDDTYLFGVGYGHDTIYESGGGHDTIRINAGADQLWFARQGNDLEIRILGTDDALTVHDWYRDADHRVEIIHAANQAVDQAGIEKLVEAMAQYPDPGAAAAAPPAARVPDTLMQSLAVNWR
Assay: ELISA

Binder	binding result (both partners purified)	binding result (one partner purified)
B1	binds	
B2		binds
B3		binds
B4	binds	
